The experiment has as its target NLuc-GhBOP1 (Gossypium hirsutum).

As for CLuc-GhTGA3 (natural protein), the GUS staining intensity from GhPR1pro:GUS in tobacco leaves: 35S:GhTGA3 + 35S:GhBOP1 + reporter against 35S:GhTGA3 + reporter came to 2 fold.

The values are drawn from publication PMC6588604.
